Data taken from PMC6593402, “The Structure of an Injectisome Export Gate Demonstrates Conservation of Architecture in the Core Export Gate between Flagellar and Virulence Type III Secretion Systems” (mBio, 2019).
Values joined by “and” are separate entries in the source; they are usually repeats but may differ in a detail not shown here. Identical values can stand only once.

B2: Salmonella enterica serovar Typhimurium FliP (natural protein)
chain: QLPGLISQPLAGGGQSWSLSVQTLVFITSLTFLPAILLMMTSFTRIIIVFGLLRNALGTPSAPPNQVLLGLALFLTFFIMSPVIDKIYVDAYQPFSEQKISMQEALDKGAQPLRAFMLRQTREADLALFARLANSGPLQGPEAVPMRILLPAYVTSELKTAFQIGFTIFIPFLIIDLVIASVLMALGMMMVPPATIALPFKLMLFVLVDGWQLLMGSLAQSFYS
notes: FliP, flagellar export gate component, Salmonella enterica serovar Typhimurium; expressed from the complete operon; source: purified from membranes

Tests used:
[1] = target: B2; assay: cryo-EM structure; re-refinement in RELION-3 of the original S. Typhimurium FliPQR single-particle data of ref. 17 (particle polishing, per-particle CTF refinement), 3.65 Å; coordinates remodeled and re-refined; conditions: both partners purified
[2] = target: T1, Salmonella enterica serovar Typhimurium FliR (Salmonella enterica serovar Typhimurium, UniProt P54702 1-264); assay: as above; conditions: both partners purified
T1 construct: FliR, flagellar export gate component, Salmonella enterica serovar Typhimurium; expressed from the complete operon; 'full length' rests on the words 'the same strategy of expression of the complete operon'; source: purified from membranes
T1 sequence: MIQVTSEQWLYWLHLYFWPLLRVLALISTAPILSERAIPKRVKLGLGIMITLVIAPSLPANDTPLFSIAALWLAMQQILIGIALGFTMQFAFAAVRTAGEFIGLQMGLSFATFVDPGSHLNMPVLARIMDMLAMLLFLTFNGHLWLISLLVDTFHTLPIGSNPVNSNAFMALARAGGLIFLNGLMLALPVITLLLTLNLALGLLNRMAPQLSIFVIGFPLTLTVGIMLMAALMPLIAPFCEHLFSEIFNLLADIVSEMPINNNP

[3] = target: the molecule itself; assay: as above
[4] = target: the molecule itself; assay: cryo-EM structure; SctRST co-expressed from the operon in E. coli, complex purified by the Dual-Strep tag on SctT and SEC; 0.01% LMNG in TBS (100 mM Tris, 150 mM NaCl, 1 mM EDTA, pH 8), 8.4 mg/ml; single-particle reconstruction at 3.5 Å, with further 3D classification of the particle set

B1: Salmonella enterica serovar Typhimurium FliQ (natural protein)
chain: MTPESVMMMGTEAMKVALALAAPLLLVALITGLIISILQAATQINEMTLSFIPKIVAVFIAIIVAGPWMLNLLLDYVRTLFSNLPYIIG
notes: FliQ, flagellar export gate component, Salmonella enterica serovar Typhimurium; expressed from the complete operon; 'full length' rests on the words 'the same strategy of expression of the complete operon'; source: purified from membranes
[1]
  binding result: binds
[2]
  binding result: binds
[3]
  binding result: binds

## B2
[2]
  binding result: binds
[3]
  binding result: binds

B3: Shigella flexneri SctS (Spa9) (natural protein)
chain: MSDIVYMGNKALYLILIFSLWPVGIATVIGLSIGLLQTVTQLQEQTLPFGIKLIGVSISLLLLSGWYGEVLLSFCHEIMFLIKSGV
notes: Spa9 (SctS), export gate component of the Shigella flexneri virulence type III secretion system; expressed from the complete operon (Spa24/Spa9/Spa29); Two to four copies stand in the SctRST complexes; 'full length' rests on the words 'expression of the complete operon'; source: E. coli BL21, co-expressed from plasmid pT12_Spa24929, membranes dissolved in 1% LMNG, purified (StrepTrap, SEC)
[4]
  stoichiometry N: 2 and 3
